# Test results reported in the RNAGym collection of RNA variant scans (doi:10.1021/acssynbio.7b00057).
# B1: Pistol ribozyme (parent)
# chain: GGGUCGUUGUUCCAUAAUCGCGUGGAUAUGGCACGCAAGUUUCUACCGGGCACCGUAAAUGUCCGACUGGAGCCGUUCGGGCGGCUAUAAACAGACCUCAGGCCCGAAGCGUGGCGGCACCUGCCGCCGGUGGUAAAAAAGAUCGGAAGAGCACACGUCU
# Variants of: B1
# Experiment: aptazyme ON/OFF ratio, guanine; higher = stronger switching; co-transcriptional cleavage with and without guanine
row,Variant,aptazyme ON/OFF ratio
1,G9U U10C U11A C12G C13A,1.48
2,G9U U10A U11G C12U,1.27
3,G9U U10A U11G C12G,2.12
4,G9U U10A U11G C12A,1.79
5,G9U U10A U11C C12A C13A,1.06
6,G9U U10A U11C C12A C13G,0.991
7,G9U U10A U11C C12A C13U,1.41
8,G9C U11A C13U,1.3
9,G9C U11A C13G,1.04
10,G9C U11A C13A,1.19
11,G9C U11G C12G C13G,1.07
12,G9C U11G C12G C13U,1.05
13,G9C U11G C12G C13A,1.24
14,G9C U10G C12U,1.47
15,G9C U10G C12G,1.19
16,G9C U10G C12A,1.3
17,G9U U10G C13A,1.52
18,G9U U10G C13U,1.65
19,G9U U10G C13G,1.29
20,G9C U11C C12A C13U,1.16
21,G9C U11C C12A C13A,1.12
22,G9C U11C C12A C13G,1.09
23,G9U U10C U11A C12A,1.47
24,G9U U10C U11A C12U,1.89

row,Variant,aptazyme ON/OFF ratio
1,G9U U10C U11A C12G,1.76
2,G9U U10A U11G C13G,1.22
3,G9U U10A U11G C13U,1.72
4,G9U U10A U11G C13A,1.56
5,G9C U10G U11C C12A C13U,1.25
6,G9C U10G U11C C12A C13G,1.15
7,G9C U10G U11C C12A C13A,1.22
8,G9C U11G C12G,1.27
9,G9C U11G C12U,1.84
10,G9C U11G C12A,1.11
11,G9U U10C C13G,1.13
12,G9U U10C C13U,1.72
13,G9U U10C C13A,1.22
14,G9U U10C U11A C12U C13G,1.35
15,G9U U10C U11A C12U C13A,1.49
16,G9U U10C U11A C12U C13U,1.54
17,G9U U10G U11A C13A,1.13
18,G9U U10G U11A C13U,1.08
19,G9U U10G U11A C13G,1.14
20,G9U U10A C12A,1.21
21,G9U U10A C12U,1.41
22,G9U U10A C12G,1.41
23,G9U U10G U11C C12U,1.08
24,G9U U10G U11C C12A,1.69

row,Variant,aptazyme ON/OFF ratio
1,G9U U10G U11C C12G,1.65
2,G9C U10C U11C C12A C13U,0.997
3,G9C U10C U11C C12A C13A,1.03
4,G9C U10C U11C C12A C13G,1.01
5,G9C U10G U11A C12U,1.04
6,G9C U10G U11A C12A,1.31
7,G9C U10G U11A C12G,1.27
8,G9U U10A U11C C12G C13U,1.47
9,G9U U10A U11C C12G C13G,0.978
10,G9U U10A U11C C12G C13A,1.3
11,G9U U10C C12A C13A,1.39
12,G9U U10C C12A C13U,1.38
13,G9U U10C C12A C13G,1.61
14,G9C U10C U11C C12G C13U,1.04
15,G9C U10C U11C C12G C13G,1.05
16,G9C U10C U11C C12G C13A,1.08
17,G9U U10G C12U C13A,1.35
18,G9U U10G C12U C13U,1.26
19,G9U U10G C12U C13G,1.66
20,G9U U10A C12G C13U,1.21
21,G9U U10A C12G C13A,1.07
22,G9U U10A C12G C13G,1.33
23,G9U U10C U11C C12G C13G,1.11
24,G9U U10C U11C C12G C13U,1.1

row,Variant,aptazyme ON/OFF ratio
1,G9U U10C U11C C12G C13A,1.08
2,G9C U10C U11G C12U C13A,1.04
3,G9C U10C U11G C12U C13U,1.06
4,G9C U10C U11G C12U C13G,1.05
5,G9C U10G U11A C12U C13U,1.08
6,G9C U10G U11A C12U C13G,1.09
7,G9C U10G U11A C12U C13A,1.09
8,G9U U10C U11C C13A,1.04
9,G9U U10C U11C C13U,1.03
10,G9U U10C U11C C13G,1.06
11,G9U U10C C12U C13U,1.63
12,G9U U10C C12U C13A,1.69
13,G9U U10C C12U C13G,1.34
14,G9U,4.29
15,G9C U10G U11C C12G C13G,1.24
16,G9C U10G U11C C12G C13A,1.17
17,G9C U10G U11C C12G C13U,1.15
18,G9U C12A C13U,1.1
19,G9U C12A C13G,1.45
20,G9U C12A C13A,1.63
21,G9U U10A U11C C12A,1.72
22,G9U U10A U11C C12G,1.57
23,G9U U10A U11C C12U,1.79
24,G9C U10G C13G,1.1

row,Variant,aptazyme ON/OFF ratio
1,G9C U10G C13U,1.49
2,G9C U10G C13A,1.28
3,G9U U10C U11G C12U C13A,1.46
4,G9U U10C U11G C12U C13U,1.41
5,G9U U10C U11G C12U C13G,1.34
6,G9U U10A U11C C13G,1.04
7,G9U U10A U11C C13U,1.17
8,G9U U10A U11C C13A,1.53
9,G9C U10G C12A C13G,1.11
10,G9C U10G C12A C13A,1.15
11,G9C U10G C12A C13U,1.32
12,G9U C12U C13G,1.3
13,G9U C12U C13U,1.34
14,G9U C12U C13A,1.23
15,G9U U10C U11G C12A,1.13
16,G9U U10C U11G C12G,1.2
17,G9U U10C U11G C12U,2.12
18,G9C U10C U11C C12U C13U,1.03
19,G9C U10C U11C C12U C13G,1.01
20,G9C U10C U11C C12U C13A,1.02
21,G9C U11C C12U C13A,1.09
22,G9C U11C C12U C13U,1.14
23,G9C U11C C12U C13G,1.01
24,G9U U10A U11A C12A,1.54

row,Variant,aptazyme ON/OFF ratio
1,G9U U10A U11A C12U,1.64
2,G9U U10A U11A C12G,1.47
3,G9C U11C C12G,1.22
4,G9C U11C C12U,1.14
5,G9C U11C C12A,1.25
6,G9C U11C C12G C13U,1.19
7,G9C U11C C12G C13G,1.09
8,G9C U11C C12G C13A,1.13
9,G9C U10C U11C C13U,1.02
10,G9C U10C U11C C13G,1.03
11,G9C U10C U11C C13A,1.02
12,G9C U11A C12U C13A,1.27
13,G9C U11A C12U C13G,1.17
14,G9C U11A C12U C13U,1.34
15,G9C U10G U11C C13A,1.24
16,G9C U10G U11C C13G,1.03
17,G9C U10G U11C C13U,1.06
18,G9U U10G U11C C12A C13A,1.34
19,G9U U10G U11C C12A C13G,1.29
20,G9U U10G U11C C12A C13U,1.23
21,G9U U10A U11G C12U C13U,1.7
22,G9U U10A U11G C12U C13A,1.21
23,G9U U10A U11G C12U C13G,1.47
24,G9C U10C U11G C12A C13U,1.02

row,Variant,aptazyme ON/OFF ratio
1,G9C U10C U11G C12A C13G,1.03
2,G9C U10C U11G C12A C13A,1.04
3,G9U U10G U11A C12U C13A,1.21
4,G9U U10G U11A C12U C13U,1.85
5,G9U U10G U11A C12U C13G,1.24
6,G9U U10A U11G C12G C13A,1.1
7,G9U U10A U11G C12G C13U,1.14
8,G9U U10A U11G C12G C13G,1.11
9,G9U U10A U11A C12G C13A,0.999
10,G9U U10A U11A C12G C13G,1.51
11,G9U U10A U11A C12G C13U,1.64
12,G9C U10G U11G C12A C13G,1.12
13,G9C U10G U11G C12A C13A,1.11
14,G9C U10G U11G C12A C13U,1.11
15,G9C U11A C12A C13U,1.3
16,G9C U11A C12A C13G,1.12
17,G9C U11A C12A C13A,1.26
18,G9C U10C U11G C12G,1.09
19,G9C U10C U11G C12U,1.07
20,G9C U10C U11G C12A,1.03
21,G9U U10C U11C,1.63
22,G9U U10C U11A,3.16
23,G9U U10C U11G,3.45
